B1: OR4K15 (parent)
chain: GUUAACGGUCAUAGGCCAUGGAAACUAGGAGCACCAUUUCGCUGCCAGUGAAGAAAUGAACAAAGAAAAUCUGGGCCAGGCAGGCAUCAAAAGAAAUAGUCUUGCGCUCAACCAGAAAGUCUGUAAUCAUUUUAAGGGUA

Variants of: B1
Experiment: self-cleavage, relative activity (ratio to wild type); higher = more cleavage; in vitro, sequencing; the parent is a self-cleaving ribozyme

Row | Variant | self-cleavage
1 | A66G A126G | 1.07
2 | U2C A62C | 1.39
3 | U19C C85G | 1.02
4 | A66G G138A | 1.26
5 | A30U U72A | 0.27
6 | U97C U127A | 0.81
7 | A90G G138U | 1.3
8 | A4G A33U | 0.59
9 | U3C U49C | 0.5
10 | U97C U108C | 0.04
11 | U19C A54G | 1.21
12 | C88A A111G | 0
13 | U43C A89C | 1.36
14 | G8A A18G | 0.78
15 | A59G A94G | 0.79
16 | U3C A91C | 0.84
17 | A24G A126G | 0.83
18 | A54G A55G | 0.99
19 | A95G U132C | 2.35
20 | A5C A23G | 1.28
21 | A82U A125C | 0.29
22 | A52C A90G | 0.58
23 | U2A A56G | 0.89
24 | A54G A91C | 1.05

Row | Variant | self-cleavage
25 | C71A U132C | 0.58
26 | A92G C113U | 0.14
27 | A22U U72C | 0.04
28 | A30G A67G | 0.91
29 | G7U A56G | 1.29
30 | A60G A86G | 1.36
31 | A56G U102A | 0.97
32 | U39C U132A | 0.7
33 | U103C A125G | 0.69
34 | A47U U132A | 0.51
35 | G119C U132C | 1.13
36 | A90U A125G | 0.8
37 | U2C U19C | 0.96
38 | U26A A51G | 1.15
39 | A22C U70C | 1.25
40 | A22G G48A | 1.56
41 | C45U A114G | 0.75
42 | A30G U49G | 1.48
43 | U139A | 0.59
44 | A18G C32U | 1.17
45 | U43C A56G | 1.18
46 | U9C A129C | 0.68
47 | A33U A56G | 1.57
48 | G50C A116G | 0.9

Row | Variant | self-cleavage
49 | A98C U100C | 2.44
50 | U12A A36G | 1.05
51 | U12A A51U | 1.05
52 | A68G G80A | 0.21
53 | U43A A89U | 1.74
54 | A59U U120C | 1.78
55 | C10U U127C | 0.32
56 | A59G A62G | 1.27
57 | A78U A114C | 0.05
58 | A64G G137U | 2.23
59 | A64U G79U | 0.17
60 | G83U U122A | 0.15
61 | A22U A111G | 0.02
62 | G75A A116U | 0.05
63 | A68C | 1.73
64 | A24G A69G | 1.31
65 | U2C U12G | 0.39
66 | A114G A129U | 0.13
67 | A60G U70G | 1.65
68 | U9A A55G | 0.81
69 | A78G C81U | 0.14
70 | G65U | 2
71 | A13G U72A | 0.23
72 | U2C G106A | 0.03

Row | Variant | self-cleavage
73 | U19A A96U | 1.41
74 | A78G A98G | 0.08
75 | A90U A126U | 0.98
76 | A30G C105U | 0.17
77 | A22G U102A | 0.32
78 | A126G A135C | 0.84
79 | U19C A62G | 0.83
80 | A36U A89G | 1.41
81 | U19C A90G | 1.39
82 | C128A A134G | 1.63
83 | A36G G99A | 0.74
84 | A11U A91G | 0.78
85 | U49C A114C | 0.03
86 | A18G A36U | 1.39
87 | C61A | 1.82
88 | C46A A52G | 1.25
89 | A11U A89U | 1.59
90 | A62C A67G | 0.86
91 | A60G A69U | 1.67
92 | G65A A126U | 0.76
93 | A54G G106U | 0.02
94 | U26C U43C | 0.54
95 | A90G U100C | 2.32
96 | U19C A59G | 1.55

Row | Variant | self-cleavage
97 | A92U | 1.71
98 | A22U C121A | 2.6
99 | U9C G15A | 1.47
100 | A51G G73A | 0.26
101 | U57A A91G | 0.54
102 | A116G U139C | 1.17
103 | G74C A111G | 0.02
104 | A11G C71A | 0.71
105 | A91G G104A | 0.02
106 | A24C A98G | 0.56
107 | A36U A55G | 1.4
108 | A11U A92G | 1
109 | A54U U131C | 1.11
110 | A64G C112U | 0.01
111 | C61U A98U | 2.63
112 | A62G U72C | 0.24
113 | U26C A59G | 0.96
114 | G119A | 2.29
115 | G7A A110G | 0.11
116 | A63G C105U | 0.05
117 | A24G A140G | 1.4
118 | U108A C121U | 0
119 | A91G U120A | 1.33
120 | A23U A135G | 1.35

Row | Variant | self-cleavage
121 | A59G A118G | 0.75
122 | A64G A66C | 1.17
123 | U49C A55U | 1.67
124 | U70G A95G | 1.21
125 | G31A A59U | 0.76
126 | A52G C121A | 2.07
127 | A86G A89G | 1.42
128 | A52G A95G | 2.12
129 | U70A U131C | 0.7
130 | U100A A117G | 1.14
131 | A62G A82G | 0.49
132 | A13G A78U | 0.6
133 | A18U A27G | 1.13
134 | A62U A117G | 1.64
135 | C45U A126G | 0.97
136 | U49C U120A | 1.64
137 | A22U U39C | 0.34
138 | A95U G104A | 0.05
139 | A22G A134U | 1.05
140 | A67U U72C | 0.31
141 | A30C A116G | 0.89
142 | C113A A114G | 0.01
143 | U37G A89G | 1.75
144 | G31A A78G | 0.27

Row | Variant | self-cleavage
145 | A66G U87A | 1.15
146 | A27U A30G | 0.38
147 | A18G A54U | 1.25
148 | G14U A22G | 1.12
149 | A90C | 1.55
150 | A96G A118G | 1.4
151 | G50A A52G | 2.63
152 | U70C A126U | 0.71
153 | U19A G75C | 0.16
154 | U39C A68U | 2.09
155 | U108A U120C | 0.01
156 | U103C A118G | 0.22
157 | A62C A111G | 0.03
158 | U130C A135U | 0.65
159 | A56C A118G | 0.63
160 | A55G A126U | 0.86
161 | U103C U132A | 1.03
162 | U2G A59G | 0.81
163 | U87C U120C | 0.21
164 | A54G A82U | 0.26
165 | C109U U130A | 0.25
166 | A54G G136U | 2.55
167 | A60G G106A | 0.02

Source: the RNAGym collection of RNA variant scans (doi:10.7554/elife.90254)
